According to article PMC2034464 (Nucleic Acids Research, 2007):

Tests used:
[1] = biological target: T1, MutSβ (MSH2/MSH3 heterodimer) (human, UniProt P43246 1-934; P20585 1-1137); assay: pull-down
[2] = biological target: T2, MutSα (MSH2/MSH6 heterodimer) (human, UniProt P43246 1-934; P52701 1-1360); assay: ELISA
[3] = biological target: T1, MutSβ (MSH2/MSH3 heterodimer); assay: ELISA
[4] = biological target: T3, MutLα (MLH1/PMS2 heterodimer) (human, UniProt P40692 1-756; P54278 1-862); assay: ELISA
T3 sequence (P40692 whole entry, chain 1 of 2): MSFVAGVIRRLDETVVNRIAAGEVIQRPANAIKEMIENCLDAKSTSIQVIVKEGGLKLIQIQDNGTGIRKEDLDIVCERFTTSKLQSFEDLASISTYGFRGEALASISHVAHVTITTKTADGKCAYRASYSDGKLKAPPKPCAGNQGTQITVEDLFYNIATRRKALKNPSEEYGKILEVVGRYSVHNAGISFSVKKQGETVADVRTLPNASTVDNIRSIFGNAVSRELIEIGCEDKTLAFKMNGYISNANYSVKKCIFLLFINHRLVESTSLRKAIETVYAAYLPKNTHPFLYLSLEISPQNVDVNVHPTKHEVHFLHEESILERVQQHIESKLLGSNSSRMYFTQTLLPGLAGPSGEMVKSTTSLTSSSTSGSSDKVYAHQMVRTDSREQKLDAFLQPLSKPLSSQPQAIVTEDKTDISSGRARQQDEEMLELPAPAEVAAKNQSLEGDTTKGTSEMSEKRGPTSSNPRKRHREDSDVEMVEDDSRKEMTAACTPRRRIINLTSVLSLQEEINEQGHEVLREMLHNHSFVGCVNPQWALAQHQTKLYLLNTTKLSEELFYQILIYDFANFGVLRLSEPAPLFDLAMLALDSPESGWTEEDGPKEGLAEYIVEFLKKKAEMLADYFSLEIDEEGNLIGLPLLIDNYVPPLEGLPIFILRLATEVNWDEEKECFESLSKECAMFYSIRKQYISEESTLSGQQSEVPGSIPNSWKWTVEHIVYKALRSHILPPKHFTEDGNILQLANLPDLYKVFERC
T3 sequence (P54278 whole entry, chain 2 of 2): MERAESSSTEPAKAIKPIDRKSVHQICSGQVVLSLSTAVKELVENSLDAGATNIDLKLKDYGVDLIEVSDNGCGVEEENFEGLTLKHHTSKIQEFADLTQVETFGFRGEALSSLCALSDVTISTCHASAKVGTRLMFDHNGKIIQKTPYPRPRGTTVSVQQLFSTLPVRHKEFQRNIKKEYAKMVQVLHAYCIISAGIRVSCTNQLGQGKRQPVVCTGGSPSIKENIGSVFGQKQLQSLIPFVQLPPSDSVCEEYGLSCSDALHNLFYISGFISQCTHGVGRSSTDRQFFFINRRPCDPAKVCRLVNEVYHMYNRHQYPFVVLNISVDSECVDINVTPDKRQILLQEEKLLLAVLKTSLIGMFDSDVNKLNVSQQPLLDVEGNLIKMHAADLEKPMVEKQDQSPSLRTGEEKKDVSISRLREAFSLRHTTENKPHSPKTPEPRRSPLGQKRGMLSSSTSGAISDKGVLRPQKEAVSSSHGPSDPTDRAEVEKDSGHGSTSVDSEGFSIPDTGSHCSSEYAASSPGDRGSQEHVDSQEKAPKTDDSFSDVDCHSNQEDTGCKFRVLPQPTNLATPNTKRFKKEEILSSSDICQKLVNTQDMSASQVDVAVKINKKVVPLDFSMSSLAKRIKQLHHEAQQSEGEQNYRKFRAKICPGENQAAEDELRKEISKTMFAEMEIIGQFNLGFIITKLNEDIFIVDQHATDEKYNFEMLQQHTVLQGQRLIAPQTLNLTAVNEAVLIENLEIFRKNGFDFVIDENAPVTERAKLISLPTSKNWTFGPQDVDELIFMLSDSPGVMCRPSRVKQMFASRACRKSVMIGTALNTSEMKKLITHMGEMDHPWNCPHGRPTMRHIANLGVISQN

[5] = biological target: T3, MutLα (MLH1/PMS2 heterodimer); assay: pull-down
[6] = biological target: T2, MutSα (MSH2/MSH6 heterodimer); assay: pull-down

T1 sequence (P43246 whole entry, chain 1 of 2): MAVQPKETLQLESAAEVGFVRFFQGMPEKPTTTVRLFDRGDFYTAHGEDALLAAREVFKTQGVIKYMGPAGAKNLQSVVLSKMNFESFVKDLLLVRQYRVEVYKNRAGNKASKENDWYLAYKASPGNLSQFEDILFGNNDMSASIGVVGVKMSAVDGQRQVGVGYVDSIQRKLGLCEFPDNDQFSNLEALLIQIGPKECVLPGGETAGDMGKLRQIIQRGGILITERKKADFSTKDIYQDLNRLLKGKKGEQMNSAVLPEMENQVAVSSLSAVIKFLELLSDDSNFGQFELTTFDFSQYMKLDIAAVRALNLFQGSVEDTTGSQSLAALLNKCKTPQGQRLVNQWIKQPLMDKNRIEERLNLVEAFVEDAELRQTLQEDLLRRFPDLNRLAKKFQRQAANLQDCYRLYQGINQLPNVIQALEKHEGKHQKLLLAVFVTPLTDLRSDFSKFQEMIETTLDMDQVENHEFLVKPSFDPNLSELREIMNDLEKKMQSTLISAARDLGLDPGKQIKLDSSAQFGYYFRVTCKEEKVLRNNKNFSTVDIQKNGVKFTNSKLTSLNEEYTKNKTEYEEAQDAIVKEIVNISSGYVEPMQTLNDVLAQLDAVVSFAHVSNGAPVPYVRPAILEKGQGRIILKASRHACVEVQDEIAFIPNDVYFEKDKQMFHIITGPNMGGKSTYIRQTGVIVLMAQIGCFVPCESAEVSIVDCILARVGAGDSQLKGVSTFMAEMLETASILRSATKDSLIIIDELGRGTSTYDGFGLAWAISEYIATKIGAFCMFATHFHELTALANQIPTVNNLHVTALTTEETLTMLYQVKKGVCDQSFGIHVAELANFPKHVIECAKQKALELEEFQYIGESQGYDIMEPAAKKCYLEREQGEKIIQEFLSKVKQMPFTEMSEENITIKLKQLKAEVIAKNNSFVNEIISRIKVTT
T1 sequence (P20585 whole entry, chain 2 of 2): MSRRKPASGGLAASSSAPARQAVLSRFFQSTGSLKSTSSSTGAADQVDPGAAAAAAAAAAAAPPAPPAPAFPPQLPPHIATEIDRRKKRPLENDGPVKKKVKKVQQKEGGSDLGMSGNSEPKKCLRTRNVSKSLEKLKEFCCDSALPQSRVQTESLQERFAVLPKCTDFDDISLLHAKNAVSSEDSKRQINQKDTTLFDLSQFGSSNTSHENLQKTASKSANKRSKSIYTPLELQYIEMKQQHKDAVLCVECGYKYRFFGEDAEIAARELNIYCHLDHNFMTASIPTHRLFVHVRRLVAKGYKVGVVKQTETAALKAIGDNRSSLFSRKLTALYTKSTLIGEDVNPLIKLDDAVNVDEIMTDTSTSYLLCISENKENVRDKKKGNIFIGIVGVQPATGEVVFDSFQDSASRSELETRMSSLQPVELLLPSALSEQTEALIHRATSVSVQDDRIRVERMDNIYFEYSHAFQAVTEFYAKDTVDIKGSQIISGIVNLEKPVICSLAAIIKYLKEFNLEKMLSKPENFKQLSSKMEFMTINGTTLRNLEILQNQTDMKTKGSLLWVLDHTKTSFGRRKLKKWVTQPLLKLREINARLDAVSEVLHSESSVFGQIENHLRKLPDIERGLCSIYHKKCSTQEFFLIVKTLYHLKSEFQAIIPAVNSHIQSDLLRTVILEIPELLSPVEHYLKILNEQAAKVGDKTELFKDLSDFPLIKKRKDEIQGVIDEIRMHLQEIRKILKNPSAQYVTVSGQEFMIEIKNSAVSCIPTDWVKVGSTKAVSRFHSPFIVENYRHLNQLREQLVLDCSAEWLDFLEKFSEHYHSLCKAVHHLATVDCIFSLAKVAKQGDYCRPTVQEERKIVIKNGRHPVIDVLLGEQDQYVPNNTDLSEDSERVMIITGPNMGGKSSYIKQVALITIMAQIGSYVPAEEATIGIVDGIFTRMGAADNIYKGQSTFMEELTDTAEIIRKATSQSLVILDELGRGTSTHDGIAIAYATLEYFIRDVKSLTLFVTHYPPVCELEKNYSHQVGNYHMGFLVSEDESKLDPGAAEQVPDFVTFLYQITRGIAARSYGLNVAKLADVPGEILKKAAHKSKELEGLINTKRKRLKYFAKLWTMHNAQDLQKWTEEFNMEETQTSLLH

Binder	binding result [1]	binding result [5]	other results
GST-WRN fragment 949–1432 (domain or fragment, human, UniProt Q14191 949-1432, looked up) MDDSEDTSWDFGPQAFKLLSAVDILGEKFGIGLPILFLRGSNSQRLADQYRRHSLFGTGKDQTESWWKAFSRQLITEGFLVEVSRYNKFMKICALTKKGRNWLHKANTESQSLILQANEELCPKKLLLPSSKTVSSGTKEHCYNQVPVELSTEKKSNLEKLYSYKPCDKISSGSNISKKSIMVQSPEKAYSSSQPVISAQEQETQIVLYGKLVEARQKHANKMDVPPAILATNKILVDMAKMRPTTVENVKRIDGVSEGKAAMLAPLLEVIKHFCQTNSVQTDLFSSTKPQEEQKTSLVAKNKICTLSQSMAITYSLFQEKKMPLKSIAESRILPLMTIGMHLSQAVKAGCPLDLERAGLTPEVQKIIADVIRNPPVNSDMSKISLIRMLVPENIDTYLIHMAIEILKHGPDSGLQPSCDVNKRRCFPGSEEICSSSKRSKEEVGINTETSSAERKRRLPVWFAKGSDTSKKLMDKTKRGGLFS	binds	–	–
Recombinant human WRN (Werner syndrome helicase) (natural protein) not shown	–	–	Kd [2]: 38.5 nM; Kd [3]: 8.8 nM; Kd [4]: 34.9 nM
GST-WRN fragment 500–1149 (domain or fragment) not shown	binds	–	–

Further lines, with some results ahead:

binding result [1]	binding result [5]	Binder	other results
–	binds	GST-WRN fragment 51–449 (domain or fragment, human, UniProt Q14191 51-449, looked up) GSIVYSYDASDCSFLSEDISMSLSDGDVVGFDMEWPPLYNRGKLGKVALIQLCVSESKCYLFHVSSMSVFPQGLKMLLENKAVKKAGVGIEGDQWKLLRDFDIKLKNFVELTDVANKKLKCTETWSLNSLVKHLLGKQLLKDKSIRCSNWSKFPLTEDQKLYAATDAYAGFIIYRNLEILDDTVQRFAINKEEEILLSDMNKQLTSISEEVMDLAKHLPHAFSKLENPRRVSILLKDISENLYSLRRMIIGSTNIETELRPSNNLNLLSFEDSTTGGVQQKQIREHEVLIHVEDETWDPTLDHLAKHDGEDVLGNKVERKEDGFEDGVEDNKLKENMERACLMSLDITEHELQILEQQSQEEYLSDIAYKSTEHLSPNDNENDTSYVIESDEDLEMEML	–
binds	binds	GST-WRN fragment 500–946 (domain or fragment) not shown	binding result [6]: binds
